How the values were obtained:
Assay in all cases: cell-based or functional assay
[1] = molecular target: mouse GLP-1 receptor (mouse) (UniProt O35659)
[2] = molecular target: rat GLP-1 receptor (rat) (UniProt P32301)
[3] = molecular target: T1, human GIP receptor (human) (UniProt P48546)
T1 sequence (looked up): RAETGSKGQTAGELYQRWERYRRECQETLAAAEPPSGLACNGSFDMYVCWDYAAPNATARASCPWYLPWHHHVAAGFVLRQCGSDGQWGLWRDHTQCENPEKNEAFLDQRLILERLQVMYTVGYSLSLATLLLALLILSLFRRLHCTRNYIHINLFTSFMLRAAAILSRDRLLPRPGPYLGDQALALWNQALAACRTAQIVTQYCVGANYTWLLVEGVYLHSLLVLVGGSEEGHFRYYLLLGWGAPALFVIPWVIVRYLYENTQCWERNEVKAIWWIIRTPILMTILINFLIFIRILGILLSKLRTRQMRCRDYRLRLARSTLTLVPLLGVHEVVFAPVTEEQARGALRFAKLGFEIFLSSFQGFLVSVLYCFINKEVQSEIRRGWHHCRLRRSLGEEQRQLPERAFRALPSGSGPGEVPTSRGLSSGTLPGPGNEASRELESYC

[4] = molecular target: cynomolgus monkey GLP-1 receptor (cynomolgus monkey) (UniProt F8V479)
cynomolgus monkey GLP-1 receptor (cynomolgus monkey), sequence (F8V479 entry or part of it): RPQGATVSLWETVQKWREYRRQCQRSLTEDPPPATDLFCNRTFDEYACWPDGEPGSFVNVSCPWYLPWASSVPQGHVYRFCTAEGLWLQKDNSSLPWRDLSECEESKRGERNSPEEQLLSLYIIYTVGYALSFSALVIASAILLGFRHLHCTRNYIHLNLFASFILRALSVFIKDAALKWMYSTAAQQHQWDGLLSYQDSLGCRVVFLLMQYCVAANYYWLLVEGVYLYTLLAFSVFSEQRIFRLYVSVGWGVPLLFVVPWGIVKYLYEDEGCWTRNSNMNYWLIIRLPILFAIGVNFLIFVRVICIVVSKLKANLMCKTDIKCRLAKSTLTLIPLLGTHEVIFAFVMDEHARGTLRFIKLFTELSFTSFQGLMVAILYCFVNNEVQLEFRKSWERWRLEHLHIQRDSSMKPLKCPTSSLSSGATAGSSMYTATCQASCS

[5] = molecular target: cynomolgus monkey glucagon receptor (cynomolgus monkey)

rat GLP-1 receptor (rat), sequence (P32301 22-463): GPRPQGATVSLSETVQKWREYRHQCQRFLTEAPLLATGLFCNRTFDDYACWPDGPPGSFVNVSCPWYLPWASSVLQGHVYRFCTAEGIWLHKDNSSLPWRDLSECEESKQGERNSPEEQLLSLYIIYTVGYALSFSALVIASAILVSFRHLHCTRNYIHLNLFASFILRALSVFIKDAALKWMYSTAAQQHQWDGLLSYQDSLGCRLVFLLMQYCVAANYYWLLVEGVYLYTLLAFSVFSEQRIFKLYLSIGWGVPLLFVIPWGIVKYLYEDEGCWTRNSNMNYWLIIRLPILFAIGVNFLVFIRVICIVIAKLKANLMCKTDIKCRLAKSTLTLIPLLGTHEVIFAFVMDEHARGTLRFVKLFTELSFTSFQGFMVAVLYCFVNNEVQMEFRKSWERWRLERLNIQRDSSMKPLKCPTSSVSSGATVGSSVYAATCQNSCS
mouse GLP-1 receptor (mouse), sequence (O35659 22-463): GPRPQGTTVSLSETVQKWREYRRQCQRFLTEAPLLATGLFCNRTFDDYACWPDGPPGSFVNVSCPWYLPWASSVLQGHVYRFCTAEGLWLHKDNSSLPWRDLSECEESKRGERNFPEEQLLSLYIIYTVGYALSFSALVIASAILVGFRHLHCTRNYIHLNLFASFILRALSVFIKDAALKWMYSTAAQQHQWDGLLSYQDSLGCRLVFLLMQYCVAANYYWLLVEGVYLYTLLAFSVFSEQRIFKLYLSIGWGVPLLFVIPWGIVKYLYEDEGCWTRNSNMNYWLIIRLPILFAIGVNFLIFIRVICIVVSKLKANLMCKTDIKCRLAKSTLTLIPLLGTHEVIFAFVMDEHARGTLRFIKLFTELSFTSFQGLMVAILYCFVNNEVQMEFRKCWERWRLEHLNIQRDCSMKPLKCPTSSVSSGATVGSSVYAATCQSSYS

glucagon (from UniProt P01275 53-81) (peptide)
cAMP EC50 [1]: 1.8 nM
cAMP EC50 [2]: 0.54 nM

human GIP (peptide)
cAMP EC50 [3]: 0.0047 nM

liraglutide (peptide)
cAMP EC50, 4.2% cyno serum albumin [4]: 0.025 nM
cAMP EC50, 4.2% cyno serum albumin [5]: > 1000 nM

Source: patent US20160185837A1, “GIP AND GLP-1 RECEPTOR DUAL-AGONISTS FOR THE TREATMENT OF DIABETES” (Medimmune Limited, priority 2013, published 2016)
